According to PMC8749410:

What was measured:
[1] = target: human recombinant I-domain of the CR3 alpha subunit CD11b (human); experiment: SPR; Biacore S200; HIV virions flowed over immobilised rI-domain or rCR3; blank ethanolamine reference flow cell; mean Kd ± SD from a minimum of two technical repeats on each of two flow cells
[2] = target: human recombinant complement receptor 3 (integrin αMβ2, CD11b/CD18) (human) (UniProt P11215); experiment: as above
[3] = target: complement receptor 3 (CD11b/CD18) on primary human cervical epithelial (Pex) cells (human (endogenous in Pex cells)) (UniProt P11215); experiment: fluorometric adherence assay on cells; virions 10 ng/mL p24 equivalent, 2 h on CHO or Pex cells; cells fixed, HIV immunolabelled (goat polyclonal LS-C103187, FITC secondary) and quantified against a standard curve of virus
[4] = target: complement receptor 3 (CD11b/CD18) on primary human cervical epithelial (Pex) cells (human (endogenous in Pex cells)) (UniProt P11215)
[5] = target: human complement receptor 3 (CD11b/CD18) on CHO-CR3 cells (human) (UniProt P11215); experiment: fluorometric adherence assay on cells; virions 10 ng/mL p24 equivalent, 2 h on CHO or Pex cells; cells fixed, HIV immunolabelled (goat polyclonal LS-C103187, FITC secondary) and quantified against a standard curve of virus

Substance	Kd [1]	Kd [2]	adherent virus (p24 HIV equivalent) [3]	percent of the inoculum adherent [3]	HIV-1 transcytosis across a polarized Pex cell monolayer in Transwells, no competimer; HIV p24 in the basal chamber as percent of the inoculum (10 ng/mL p24 equivalent) [4]	adherent virus (p24 HIV equivalent) [5]	percent of the inoculum adherent [5]
HIV-1 strain NL4-3 AD8 virions produced in HEK293T cells (envelope glycoprotein gp120/gp41 on the virion surface) (complex)	239 nM	337 nM	1.01 ng/mL	10%			
HIV-1 strain NL4-3 virions produced in HEK293T cells (envelope glycoprotein gp120/gp41 on the virion surface) (complex)	90.9 nM	192 nM					
HIV-1 transmitted founder strain REJO virions produced in HEK293T cells (envelope glycoprotein gp120/gp41 on the virion surface) (complex)	265 nM	90.3 nM					
HIV-1 transmitted founder strain RHPA virions produced in HEK293T cells (envelope glycoprotein gp120/gp41 on the virion surface) (complex)	912 nM	249 nM					
HIV-1 transmitted founder strain WITO virions produced in HEK293T cells (envelope glycoprotein gp120/gp41 on the virion surface) (complex)	298 nM	242 nM			4%		
HIV-1 transmitted founder strain WITO virions propagated in primary human PBMCs (envelope glycoprotein gp120/gp41 on the virion surface) (complex)	7.92 nM	10.6 nM					
HIV-1 transmitted founder strain WITO virions, producer cells not stated (envelope glycoprotein gp120/gp41 on the virion surface) (complex)			1.35 ng/mL	13%		2.4 ng/mL	24%
